# Target: thrombin
# Experiment: cell-based or functional assay
row,Binder,"Relative Activity (ratio of variant IC50/WT IC50), chromogenic thrombin inhibition assay [ratio]"
1,hirudin mutein M 37 (L13T) (other) VVYTDCTESGQNTCLCEGSVVCGQGNKCILGSDGEKNQCVTGEGTPKPESHNDGDFEEIPEEYLQ,0.6
2,hirudin mutein M 71 (L30S) (other) VVYTDCTESGQNLCLCEGSVVCGQGNKCISGSDGEKNQCVTGEGTPKPESHNDGDFEEIPEEYLQ,1.83
3,hirudin mutein M 81 (F56H) (other) VVYTDCTESGQNLCLCEGSVVCGQGNKCILGSDGEKNQCVTGEGTPKPESHNDGDHEEIPEEYLQ,0.8
4,hirudin mutein M 66 (L30K) (other) VVYTDCTESGQNLCLCEGSVVCGQGNKCIKGSDGEKNQCVTGEGTPKPESHNDGDFEEIPEEYLQ,1
5,hirudin mutein M 69 (L30Q) (other) VVYTDCTESGQNLCLCEGSVVCGQGNKCIQGSDGEKNQCVTGEGTPKPESHNDGDFEEIPEEYLQ,1
6,hirudin mutein M 63 (L30E) (other) VVYTDCTESGQNLCLCEGSVVCGQGNKCIEGSDGEKNQCVTGEGTPKPESHNDGDFEEIPEEYLQ,3.33
7,hirudin mutein M 60 (I29T) (other) VVYTDCTESGQNLCLCEGSVVCGQGNKCTLGSDGEKNQCVTGEGTPKPESHNDGDFEEIPEEYLQ,1
8,hirudin mutein M 58 (I29R) (other) VVYTDCTESGQNLCLCEGSVVCGQGNKCRLGSDGEKNQCVTGEGTPKPESHNDGDFEEIPEEYLQ,1
9,hirudin mutein M 70 (L30R) (other) VVYTDCTESGQNLCLCEGSVVCGQGNKCIRGSDGEKNQCVTGEGTPKPESHNDGDFEEIPEEYLQ,1
10,hirudin mutein M 38 (L15A) (other) VVYTDCTESGQNLCACEGSVVCGQGNKCILGSDGEKNQCVTGEGTPKPESHNDGDFEEIPEEYLQ,0.9
11,hirudin mutein M 74 (V40T) (other) VVYTDCTESGQNLCLCEGSVVCGQGNKCILGSDGEKNQCTTGEGTPKPESHNDGDFEEIPEEYLQ,1
12,hirudin mutein M 75 (K47T) (other) VVYTDCTESGQNLCLCEGSVVCGQGNKCILGSDGEKNQCVTGEGTPTPESHNDGDFEEIPEEYLQ,2.2
13,hirudin mutein M 57 (I29Q) (other) VVYTDCTESGQNLCLCEGSVVCGQGNKCQLGSDGEKNQCVTGEGTPKPESHNDGDFEEIPEEYLQ,1
14,hirudin mutein M 56 (I29N) (other) VVYTDCTESGQNLCLCEGSVVCGQGNKCNLGSDGEKNQCVTGEGTPKPESHNDGDFEEIPEEYLQ,1
15,hirudin mutein M 62 (L30D) (other) VVYTDCTESGQNLCLCEGSVVCGQGNKCIDGSDGEKNQCVTGEGTPKPESHNDGDFEEIPEEYLQ,2
16,hirudin mutein M 50 (I29A) (other) VVYTDCTESGQNLCLCEGSVVCGQGNKCALGSDGEKNQCVTGEGTPKPESHNDGDFEEIPEEYLQ,1
17,hirudin mutein M 68 (L30P) (other) VVYTDCTESGQNLCLCEGSVVCGQGNKCIPGSDGEKNQCVTGEGTPKPESHNDGDFEEIPEEYLQ,1.83
18,hirudin mutein M 1 (I29A L30A) (other) VVYTDCTESGQNLCLCEGSVVCGQGNKCAAGSDGEKNQCVTGEGTPKPESHNDGDFEEIPEEYLQ,1.4
19,hirudin mutein M 49 (V21R) (other) VVYTDCTESGQNLCLCEGSVRCGQGNKCILGSDGEKNQCVTGEGTPKPESHNDGDFEEIPEEYLQ,0.77
20,hirudin mutein M 73 (V40A) (other) VVYTDCTESGQNLCLCEGSVVCGQGNKCILGSDGEKNQCATGEGTPKPESHNDGDFEEIPEEYLQ,1
21,hirudin mutein M 72 (L30T) (other) VVYTDCTESGQNLCLCEGSVVCGQGNKCITGSDGEKNQCVTGEGTPKPESHNDGDFEEIPEEYLQ,1

row,Binder,"Relative Activity (ratio of variant IC50/WT IC50), chromogenic thrombin inhibition assay [ratio]"
1,hirudin mutein M 51 (I29D) (other) VVYTDCTESGQNLCLCEGSVVCGQGNKCDLGSDGEKNQCVTGEGTPKPESHNDGDFEEIPEEYLQ,1
2,hirudin mutein M 59 (I29S) (other) VVYTDCTESGQNLCLCEGSVVCGQGNKCSLGSDGEKNQCVTGEGTPKPESHNDGDFEEIPEEYLQ,1
3,hirudin mutein M 46 (V21N) (other) VVYTDCTESGQNLCLCEGSVNCGQGNKCILGSDGEKNQCVTGEGTPKPESHNDGDFEEIPEEYLQ,0.83
4,hirudin mutein M 77 (P48T) (other) VVYTDCTESGQNLCLCEGSVVCGQGNKCILGSDGEKNQCVTGEGTPKTESHNDGDFEEIPEEYLQ,1
5,hirudin mutein M 78 (D53E) (other) VVYTDCTESGQNLCLCEGSVVCGQGNKCILGSDGEKNQCVTGEGTPKPESHNEGDFEEIPEEYLQ,1
6,hirudin mutein M 55 (I29K) (other) VVYTDCTESGQNLCLCEGSVVCGQGNKCKLGSDGEKNQCVTGEGTPKPESHNDGDFEEIPEEYLQ,1
7,hirudin mutein M 53 (I29G) (other) VVYTDCTESGQNLCLCEGSVVCGQGNKCGLGSDGEKNQCVTGEGTPKPESHNDGDFEEIPEEYLQ,1.8
8,hirudin mutein M 54 (I29H) (other) VVYTDCTESGQNLCLCEGSVVCGQGNKCHLGSDGEKNQCVTGEGTPKPESHNDGDFEEIPEEYLQ,1
9,hirudin mutein M 80 (D53R) (other) VVYTDCTESGQNLCLCEGSVVCGQGNKCILGSDGEKNQCVTGEGTPKPESHNRGDFEEIPEEYLQ,1
10,hirudin mutein M 76 (P48A) (other) VVYTDCTESGQNLCLCEGSVVCGQGNKCILGSDGEKNQCVTGEGTPKAESHNDGDFEEIPEEYLQ,1
11,hirudin mutein M 64 (L30G) (other) VVYTDCTESGQNLCLCEGSVVCGQGNKCIGGSDGEKNQCVTGEGTPKPESHNDGDFEEIPEEYLQ,2.2
12,hirudin mutein M 40 (L15Q) (other) VVYTDCTESGQNLCQCEGSVVCGQGNKCILGSDGEKNQCVTGEGTPKPESHNDGDFEEIPEEYLQ,0.34
13,hirudin mutein M 65 (L30H) (other) VVYTDCTESGQNLCLCEGSVVCGQGNKCIHGSDGEKNQCVTGEGTPKPESHNDGDFEEIPEEYLQ,1
14,hirudin mutein M 39 (L15H) (other) VVYTDCTESGQNLCHCEGSVVCGQGNKCILGSDGEKNQCVTGEGTPKPESHNDGDFEEIPEEYLQ,0.65
15,hirudin mutein M 61 (L30A) (other) VVYTDCTESGQNLCLCEGSVVCGQGNKCIAGSDGEKNQCVTGEGTPKPESHNDGDFEEIPEEYLQ,1
16,hirudin mutein M 67 (L30N) (other) VVYTDCTESGQNLCLCEGSVVCGQGNKCINGSDGEKNQCVTGEGTPKPESHNDGDFEEIPEEYLQ,1.54
17,hirudin mutein M 48 (V21Q) (other) VVYTDCTESGQNLCLCEGSVQCGQGNKCILGSDGEKNQCVTGEGTPKPESHNDGDFEEIPEEYLQ,0.83
18,hirudin mutein M 52 (I29E) (other) VVYTDCTESGQNLCLCEGSVVCGQGNKCELGSDGEKNQCVTGEGTPKPESHNDGDFEEIPEEYLQ,1
19,hirudin mutein M 47 (V21P) (other) VVYTDCTESGQNLCLCEGSVPCGQGNKCILGSDGEKNQCVTGEGTPKPESHNDGDFEEIPEEYLQ,1
20,hirudin mutein M 79 (D53N) (other) VVYTDCTESGQNLCLCEGSVVCGQGNKCILGSDGEKNQCVTGEGTPKPESHNNGDFEEIPEEYLQ,1
